Assay results reported in US20040126882A1, “Regulatable, catalytically active nucleic acids” (priority 2000, published 2004).
Where two headings read alike, the source gives them in different places.

B1: Cyt18: tyrosyl tRNA synthetase from Neurospora mitochondria (protein, UniProt P12063 33-669, looked up)
Tyrosine--tRNA ligase, …: LRREFGPKYTAKINEAEENWQARAEAIKKGKKQNTWDLFEERGYVKDTAGTKEHIAELMRTRRIGAYVGIDPTAPSLHVGHLLPLMPLFWMYLEGYKAFTLIGGSTAKIGDPTGRLKSRDHLSSSDATMNMTKIHYQLKKLWENVDTQMRARGYEADWARKRGIVNNNHWWNKQPMLEVLRRVGHALRIGPMLSRDTVKNKMTQGDGVSFAEFTYPIMQGWDWFELFYQQGVQMQIGGSDQYGNIISGLEVVKAARESEPDPQERKYVTPKTALDECVGFTVPLLTDSSGAKFGKSAGNAIWLDPYQTSVFDFYGYFVRRSDQEVENLLKLFTFMPISEITKTMEEHIKDPSKRVAQHTLAREVVTLVHGKQEASAAEDQHRMMYTGQMTIPQVSRAKDAATGGDQYKTISDQPVTLNNAPRIDMILPESLIMGKSIGRILYAAGLASSTTEGHKLAAAQGCYVGGAHRAGGENVTMNPDLISFMPVKLWFPGETQRYLINGNLLILRKGKHNVRVIQMVSDVEYAASGQTYPGQSFTGAVRKLNEIMKNLKEKKLTPEEAKNAVNELQKSSQEKQQGQQIIFPEEKSRQKKDMETKLKQEMIASVKTIDGMMDEKPSVRGDGVKKQTQDDRDPYKW
B2: turkey lysozyme: extremely homologous (98%) turkey lysozyme (protein, UniProt P00703 19-147, looked up)
Lysozyme C: KVYGRCELAAAMKRLGLDNYRGYSLGNWVCAAKFESNFNTHATNRNTDGSTDYGILQINSRWWCNDGRTPGSKNLCNIPCSALLSSDITASVNCAKKIASGGNGMNAWVAWRNRCKGTDVHAWIRGCRL
B3: lysozyme from human milk: lysozyme from human milk (protein, UniProt P61626 19-148, looked up)
Lysozyme C: KVFERCELARTLKRLGMDGYRGISLANWMCLAKWESGYNTRATNYNAGDRSTDYGIFQINSRYWCNDGKTPGAVNACHLSCSALLQDNIADAVACAKRVVRDPQGIRAWVAWRNRCQNRDVRQYVQGCGV

Key:
[1] = system: Cyt 18-dependent population; experiment: Specificity of activation of Cyt18-dependent ribozymes by proteins; format: biochemical; settings: Cyt18 denatured by heating or SDS
Protocol: (§1) Protein inactivation. Standard ligation assays were performed as described above, but in the presence of protein samples that had been pre-treated as follows. Cyt18 protein was denatured by heating for 10 min at 70° C. or by the addition of 6% SDS (0.7% SDS in ligation reaction). Lysozyme was heated 10 min at 100° C. or incubated 10 min at room temperature in the presence of 2 mM DTT (0.3 mM DTT final reaction) without inactivating the protein. The protein was successfully inactivated by heating for […] at 70° C. in the presence of 2 mM DTT. Ligation reactions were performed with 1.3 μM protein in 15 μl reactions incubated 5 min at 25° C.

[2] = system: lysozyme-dependent clones; experiment: Specificity of activation of lysozyme-dependent ribozymes by proteins; format: biochemical
Protocol: as §1

[3] = target: group I self-splicing intron; settings: cited from earlier work

Row | Molecule | activation of ribozyme catalysis by denatured Cyt18 [1] | activation of lysozyme-dependent ribozyme by other proteins [2] | Kd for group I self-splicing intron [3] | activation of lysozyme-dependent ribozyme by other proteins ([2]; listed as turkey egg white lysozyme)
1 | B1 | unable to activate | inactive | femptomolar range | 
2 | B2 |  | cross-activation |  | activated
3 | B3 |  | inactive |  | 
